The record followed here is article PMC8031885.

Test [1] addresses gH/gL/gO trimer of HCMV TB40-BAC4 (human cytomegalovirus, strain TB40/E (TB40-BAC4)).
The target is the same in test [2]. The source holds these as a separate data set.
For test [3] the target is unchanged. This is another data set of the same source.
For test [4], the target named is PDGF-BB (UniProt P01127).
The target of test [5] is PDGF-BB (UniProt P01127). The source holds these as a separate data set.

Chain of PDGF-BB (P01127 82-190): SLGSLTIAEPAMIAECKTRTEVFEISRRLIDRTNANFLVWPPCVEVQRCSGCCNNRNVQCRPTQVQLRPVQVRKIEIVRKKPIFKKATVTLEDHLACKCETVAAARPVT
Chain of PDGFRα-Fc delQ294-E298 (P16234 other isoform, or with tags, fused parts or gaps, stated change not applied): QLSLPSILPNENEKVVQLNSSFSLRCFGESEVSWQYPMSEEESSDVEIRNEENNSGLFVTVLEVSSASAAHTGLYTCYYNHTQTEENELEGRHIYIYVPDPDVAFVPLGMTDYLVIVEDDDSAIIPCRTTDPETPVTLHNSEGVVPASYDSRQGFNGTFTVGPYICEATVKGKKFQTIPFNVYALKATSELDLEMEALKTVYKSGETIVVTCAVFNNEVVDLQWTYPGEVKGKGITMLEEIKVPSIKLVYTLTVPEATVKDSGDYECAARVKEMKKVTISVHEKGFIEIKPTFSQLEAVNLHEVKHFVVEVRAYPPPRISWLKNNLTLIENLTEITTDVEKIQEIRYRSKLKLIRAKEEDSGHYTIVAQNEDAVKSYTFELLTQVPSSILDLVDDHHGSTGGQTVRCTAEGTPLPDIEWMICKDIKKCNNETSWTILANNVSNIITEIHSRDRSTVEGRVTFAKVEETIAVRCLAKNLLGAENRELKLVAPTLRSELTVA
Chain of PDGFRα-Fc delN204-Y206 (P16234 other isoform, or with tags, fused parts or gaps, stated change not applied): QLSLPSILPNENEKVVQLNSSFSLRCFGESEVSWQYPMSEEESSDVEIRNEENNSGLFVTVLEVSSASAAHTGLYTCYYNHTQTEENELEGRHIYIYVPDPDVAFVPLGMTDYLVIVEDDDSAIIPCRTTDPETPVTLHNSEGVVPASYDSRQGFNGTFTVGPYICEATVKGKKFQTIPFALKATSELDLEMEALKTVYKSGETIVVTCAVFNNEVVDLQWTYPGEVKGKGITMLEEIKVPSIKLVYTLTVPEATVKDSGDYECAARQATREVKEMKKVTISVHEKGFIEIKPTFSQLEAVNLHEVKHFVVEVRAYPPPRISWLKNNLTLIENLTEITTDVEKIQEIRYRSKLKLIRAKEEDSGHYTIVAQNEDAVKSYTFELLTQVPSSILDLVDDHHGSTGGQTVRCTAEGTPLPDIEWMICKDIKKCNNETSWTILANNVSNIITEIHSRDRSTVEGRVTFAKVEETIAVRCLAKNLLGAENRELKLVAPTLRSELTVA
Chain of PDGFRα-Fc delM133-I139 (P16234 other isoform, or with tags, fused parts or gaps, stated change not applied): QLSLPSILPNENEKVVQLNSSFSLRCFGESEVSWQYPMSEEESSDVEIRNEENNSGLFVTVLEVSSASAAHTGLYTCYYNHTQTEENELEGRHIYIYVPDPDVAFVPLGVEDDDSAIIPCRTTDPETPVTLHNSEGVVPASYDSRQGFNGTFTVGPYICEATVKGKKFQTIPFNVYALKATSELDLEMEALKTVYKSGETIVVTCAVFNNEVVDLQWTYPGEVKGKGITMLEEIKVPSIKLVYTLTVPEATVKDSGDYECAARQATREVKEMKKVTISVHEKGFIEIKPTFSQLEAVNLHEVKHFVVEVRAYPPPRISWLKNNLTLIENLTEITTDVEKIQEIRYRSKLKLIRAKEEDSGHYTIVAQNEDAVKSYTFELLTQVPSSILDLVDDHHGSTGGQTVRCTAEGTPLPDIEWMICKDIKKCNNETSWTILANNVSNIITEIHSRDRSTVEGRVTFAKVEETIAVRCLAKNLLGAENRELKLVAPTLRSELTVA

As for “PDGFRα-Fc delQ294-E298 (from UniProt P16234-1 24-528) (Fc fusion)”, the inhibition of HCMV TB40-BAC4-IE-GLuc infection of fibroblasts (Gaussia luciferase read-out), 4,000 to 1 ng/ml; EC50 against wild type (fold higher EC50 than wild type) in test [1] is 10.
Consider “PDGFRα-Fc Y206F (from UniProt P16234-1 24-528) (Fc fusion)”, for which the HCMV inhibition EC50 (TB40-BAC4-IE-GLuc, fibroblasts, immediate-early antigen staining) in test [2] was 5.9 ng/mL.
As to “PDGFRα-Fc T296A (from UniProt P16234-1 24-528) (Fc fusion)”, the inhibition of HCMV TB40-BAC4-IE-GLuc infection of fibroblasts (Gaussia luciferase read-out), against wild type (fold increase of the inhibitory effect) in test [3] was determined as 3.
“PDGFRα-Fc I139V (from UniProt P16234-1 24-528) (Fc fusion)” returned an HCMV inhibition EC50 (TB40-BAC4-IE-GLuc, fibroblasts, immediate-early antigen staining) in test [2] of 9.5 ng/mL.
On to “PDGFRα-Fc Q294A (from UniProt P16234-1 24-528) (Fc fusion)”, for which the inhibition of HCMV TB40-BAC4-IE-GLuc infection of fibroblasts (Gaussia luciferase read-out), against wild type (fold increase of the inhibitory effect) in test [3] was 3.
Take “PDGFRα-Fc delM133-I139 (from UniProt P16234-1 24-528) (Fc fusion)”: the inhibition of HCMV TB40-BAC4-IE-GLuc infection of fibroblasts (Gaussia luciferase read-out), 4,000 to 1 ng/ml; EC50 against wild type (fold higher EC50 than wild type) in test [1] is 10.
With “PDGFRα-Fc Y206A (from UniProt P16234-1 24-528) (Fc fusion)”, the inhibition of HCMV TB40-BAC4-IE-GLuc infection of fibroblasts (Gaussia luciferase read-out), against wild type (fold decrease of the efficiency) in test [3] is 4. In addition, the reduction of Akt phosphorylation induced by 50 ng/ml PDGF-BB in fibroblasts, phospho-Akt immunoblot, 4,000 ng/ml PDGFRα-Fc with PDGF-BB [4] came out at 60%.
As to “PDGFRα-Fc delN204-Y206 (from UniProt P16234-1 24-528) (Fc fusion)”, the inhibition of HCMV TB40-BAC4-IE-GLuc infection of fibroblasts (Gaussia luciferase read-out), 4,000 to 1 ng/ml; EC50 against wild type (fold higher EC50 than wild type) in test [1] is 10.
Regarding “PDGFRα-Fc I139A (from UniProt P16234-1 24-528) (Fc fusion)”, the inhibition of HCMV TB40-BAC4-IE-GLuc infection of fibroblasts (Gaussia luciferase read-out), against wild type (fold decrease of the efficiency) in test [3] is 4. This substance also returned a reduction of Akt phosphorylation induced by 50 ng/ml PDGF-BB in fibroblasts, phospho-Akt immunoblot, 4,000 ng/ml PDGFRα-Fc with PDGF-BB [4] of 20%. In the test with PDGF-BB [5], the reduction of p-Akt signal induced by 6 ng/ml PDGF-BB in fibroblasts, quantitative immunoblot, 4000 ng/ml PDGFRα-Fc was 80%.
As to “PDGFRα-Fc E298A (from UniProt P16234-1 24-528) (Fc fusion)”, the inhibition of HCMV TB40-BAC4-IE-GLuc infection of fibroblasts (Gaussia luciferase read-out), against wild type (fold increase of the inhibitory effect) in test [3] was found to be 3.
In test [2], “PDGFRα-Fc I139L (from UniProt P16234-1 24-528) (Fc fusion)” displayed an HCMV inhibition EC50 (TB40-BAC4-IE-GLuc, fibroblasts, immediate-early antigen staining) of 6.6 ng/mL.
